In US20250382354A1:

Tests used:
MERS S ectodomain (MERS) = assay: ELISA on coated S
[1] = target: C-terminally truncated SARS-CoV-2 S protein (pSARS-CoV2-Strunc), ancestral (SARS-CoV-2) (UniProt P0DTC2); assay: cell-based or functional assay
HKU5 HR2 peptide (HKU5) = HKU5 HR2 peptide (HKU5) (UniProt A3EXD0); assay: peptide ELISA
[2] = target: CRCoV-240/05 HR2 peptide (CRCoV-240/05); assay: peptide ELISA
[3] = target: SARS-CoV-2 HR2 peptide (SARS-CoV-2) (UniProt P0DTC2); assay: peptide ELISA
MHV HR2 peptide (MHV) = assay: peptide ELISA
[4] = target: HKU24 HR2 peptide (HKU24); assay: peptide ELISA
HKU4 HR2 peptide (HKU4) = HKU4 HR2 peptide (HKU4) (UniProt A3EX94); assay: peptide ELISA

Substance: S2P6 (antibody)
- EC50 (MERS S ectodomain (MERS)): 0.066 µg/mL
- Ancestral Pseudovirus IC50 (on cells with [not given]) [1]: 23.2 µg/mL
- EC50 (HKU5 HR2 peptide (HKU5)): 0.0345 µg/mL
- EC50 [2]: 0.0189 µg/mL
- EC50 [3]: 0.0166 µg/mL
- EC50 (MHV HR2 peptide (MHV)): 0.0215 µg/mL
- EC50 [4]: 0.0101 µg/mL
- EC50 (HKU4 HR2 peptide (HKU4)): 0.00975 µg/mL
